In assay [1] the target is C2S mutant of human CD20 (Cys111Ser, Cys220Ser), His-tagged (human) (UniProt P11836). Kind of assay: SPR (BIAcore-3000), rituximab Fab immobilised on CM5, C2S-CD20 in 0.1% DDM as analyte, 1:1 model.
Assay [2] deals with His-tagged human CD20 expressed in E. coli (human) (UniProt P11836). The experiment in a line: SPR (BIAcore-3000), rituximab Fab immobilised on CM5, CD20 in 0.1% DDM as analyte, 1:1 model. Background: In SPR one partner is held on a chip, and binding of the other changes the refractive index at the surface.
Assay [3] deals with native human CD20 on isolated normal human B cells (human) (UniProt P11836). The experiment in a line: Scatchard analysis, unlabeled against 125I-Fab on human B cells, Donor 4.
Assay [4] has the same target. The experiment in a line: Scatchard analysis, unlabeled against 125I-Fab on human B cells, Donor 5.
Assay [5] concerns the target C2S mutant of human CD20 (Cys111Ser, Cys220Ser), His-tagged (human) (UniProt P11836). Kind of assay: SPR (BIAcore-3000), rituximab Fab immobilised on CM5, affinity purified C2S-CD20 as analyte, 1:1 model.
Assay [6] concerns the target native human CD20 on isolated normal human B cells (human) (UniProt P11836). Kind of assay: Scatchard analysis, unlabeled against 125I-IgG on human B cells, Donor 2.
Assay [7] deals with His-tagged human CD20 expressed in E. coli (human) (UniProt P11836). Kind of assay: ELISA, CD20 coated on the plate, rituximab titrated, detection with HRP goat anti-human F(ab')2, absorbance 450 nm. For orientation: ELISA stands for enzyme-linked immunosorbent assay.
The target in assay [8] is human CD20 expressed with the LE leader (LE.CD20), leader and His-tag removed with thrombin (human) (UniProt P11836). Described as above.
Assay [9] addresses human CD20 expressed with the sLE leader (sLE.CD20), leader removed with thrombin (human) (UniProt P11836). The description is as above.
Assay [10] has as its target Reduced, Reoxidized. The experiment in a line: ELISA, reduced and re-oxidized CD20 coated on the plate, rituximab titrated, detection with HRP goat anti-human F(ab')2, absorbance 450 nm.
Assay [11] deals with His-tagged human CD20 expressed in E. coli (human) (UniProt P11836). Kind of assay: SPR (BIAcore-3000), rituximab IgG immobilised on CM5, CD20 in 0.1% DDM as analyte, 1:1 model.
For assay [12], the target named is native human CD20 on isolated normal human B cells (human) (UniProt P11836). Kind of assay: Scatchard analysis, unlabeled against 125I-IgG on human B cells, Donor 3.
Assay [13] has the same target. The experiment in a line: Scatchard analysis, unlabeled against 125I-IgG on human B cells, Donor 1.

Broadly, the Kd is a measure of binding affinity in units of concentration. A higher Kd goes with a looser complex. The EC50 (read off the curve) is the concentration that produces a half-maximal response. Higher therefore signals weaker potency.

Reduced, Reoxidized, sequence (CD20 polypeptide, as listed by the source): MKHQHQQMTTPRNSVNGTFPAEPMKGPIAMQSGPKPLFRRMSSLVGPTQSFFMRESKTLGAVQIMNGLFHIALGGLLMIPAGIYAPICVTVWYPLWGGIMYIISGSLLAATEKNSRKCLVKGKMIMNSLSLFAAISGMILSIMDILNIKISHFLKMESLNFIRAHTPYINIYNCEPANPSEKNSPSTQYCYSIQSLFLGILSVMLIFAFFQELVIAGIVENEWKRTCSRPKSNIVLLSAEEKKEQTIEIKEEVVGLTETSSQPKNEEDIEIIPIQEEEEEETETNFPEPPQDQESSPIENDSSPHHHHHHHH

As for rituximab Fab, the Ka in assay [1] is 4.4e+06 M⁻¹; in [2] it was 3.5e+06 M⁻¹; in assay [5], 5.4e+06 M⁻¹. For the same substance, the Kd in assay [1] came out at 230 nM; in [2] it was 280 nM; in assay [3] it was 52 nM; in assay [4] it was 63 nM; in [5] it was 190 nM.
With rituximab full length antibody, the Kd in assay [6] came out at 0.72 nM; in assay [12], 1.27 nM; in assay [13], 0.32 nM. Besides, the EC50 (read off the curve) in assay [7] is 0.5 nM; in assay [8], 0.5 nM; in assay [9], 0.4 nM; in assay [10], 50 nM. For the same substance, the Ka in assay [11] was 6.6e+06 M⁻¹.

These data come from patent US20100081170A1.
